According to patent publication US20160297884A1 (Pfizer, published 2016):

T1: Human BCMA (human, UniProt Q02223 1-54, limits assumed)
T1 construct: also called huBCMA; B-cell maturation antigen
T1 sequence (looked up): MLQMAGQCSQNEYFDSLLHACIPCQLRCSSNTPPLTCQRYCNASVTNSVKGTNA


Legend:
Human BCMA = target: T1, Human BCMA; assay: SPR, IgG immobilised, human BCMA analyte
Procedure: (§1) All experiments were performed on a Bio-Rad Proteon XPR36 surface Plasmon resonance biosensor (Bio-Rad, Hercules, Calif.). […] The analysis temperature for the immobilization was 25° C. and the running buffer was HBS-T+(10 mM HEPES, 150 mM NaCl, 0.05% Tween-20, pH 7.4). Channels were activated in the analyte (horizontal) direction by injecting a mixture of 1 mM ECD and 0.25 mM NHS for 3 minutes at a flow rate of 30 μL/min. IgGs were immobilized on the activated spots by injecting them in the ligand (vertical) direction at 20 μg/mL in 10 mM Acetate pH 4.5 buffer for 1.5 minutes at […]. The activated surfaces were blocked by injecting 1M ethanolamine, pH 8.5 in the analyte direction for 3 minutes at 30 μL/min.
(§2) The analysis temperature for the BCMA binding analysis was 37° C. or 25° C. in a running buffer of HBS-T+, supplemented with 1 mg/mL BSA. A kinetic titration method was employed for the interaction analysis as described in Abdiche, et al. Human BCMA (huBCMA) or cynomolgus monkey BCMA (cyBCMA) analyte was injected in the analyte direction using a series of injections from low to high concentration. The concentrations used were 0.08 nM, 0.4 nM, 2 nM, 10 nM and 50 nM (a 5-membered series, with a 5-fold dilution factor and top concentration of 50 nM). The association time for a given analyte dilution was two minutes. Immediately after the 50 nM BCMA injection, dissociation was monitored for 2 hours.
(§3) The sensorgrams were double-referenced and fit to a 1:1 Langmuir with mass transport kinetic titration model in BIAevaluation Software version 4.1.1 (GE Lifesciences, Piscataway, N.J.).

Cynomolgus monkey BCMA = target: T2, Cynomolgus monkey BCMA (cynomolgus monkey); assay: SPR, IgG immobilised, cyno BCMA analyte
T2 construct: Soluble analyte in SPR; also called cyBCMA; Cyno BCMA
Procedure: as §1, §2, §3

Binder | Kd (Human BCMA) [nM] | koff (Human BCMA) [s⁻¹] | kon (Human BCMA) [M⁻¹ s⁻¹] | Kd (Cynomolgus monkey BCMA) [nM] | koff (Cynomolgus monkey BCMA) [s⁻¹] | kon (Cynomolgus monkey BCMA) [M⁻¹ s⁻¹]
C01_Rd4_6nM_C26 (antibody, V domains shown, IgG) VH: EVQLLESGGGLVQPGGSLRLSCAASGFTFSSYPMSWVRQAPGKGLEWVSAIGGSGGSLPYADSVKGRFTISRDNSKNTLYLQMNSLRAEDTAVYYCARYWPMDSWGQGTLVTVSS VL: EIVLTQSPGTLSLSPGERATLSCRASQSVSALYLAWYQQKPGQAPRLLIYDASSRAPGIPDRFSGSGSGTDFTLTISRLEPEDFAVYYCQQYSAWPLTFGQGTKVEIK | 0.09 | 0.00136 | 1.5e+07 | 0.419 | 0.00199 | 4.75e+06
C01_Rd4_6nM_C12 (antibody, V domains shown, IgG; also called PC1C12) VH: EVQLLESGGGLVQPGGSLRLSCAASGFTFSSYPMSWVRQAPGKGLEWVSAIGGSGGWSYYADSVKGRFTISRDNSKNTLYLQMNSLRAEDTAVYYCARYWPMDSWGQGTLVTVSS VL: EIVLTQSPGTLSLSPGERATLSCWLSQSVSSTYLAWYQQKPGQAPRLLIYDASSRAPGIPDRFSGSGSGTDFTLTISRLEPEDFAVYYCQQYSEWPLTFGQGTKVEIK | 0.535 | 0.00649 | 1.21e+07 | 0.82 | 0.0037 | 4.51e+06
C01_Rd4_0.6nM_C09 (antibody, V domains shown, IgG) VH: EVQLLESGGGLVQPGGSLRLSCAASGFTFSSYPMSWVRQAPGKGLEWVSAIGGSGGSLPYADSVKGRFTISRDNSKNTLYLQMNSLRAEDTAVYYCARYWPMDSWGQGTLVTVSS VL: EIVLTQSPGTLSLSPGERATLSCRASQSVSSLFLAWYQQKPGQAPRLLIYDASSRAPGIPDRFSGSGSGTDFTLTISRLEPEDFAVYYCQQYSAWPLTFGQGTKVEIK | 0.545 | 0.00825 | 1.51e+07 | 1.77 | 0.00936 | 5.28e+06
C01_Rd4_6nM_C20 (antibody, V domains shown, IgG) VH: EVQLLESGGGLVQPGGSLRLSCAASGFTFSSYPMSWVRQAPGKGLEWVSAIGGSGGSLPYADSVKGRFTISRDNSKNTLYLQMNSLRAEDTAVYYCARYWPMDSWGQGTLVTVSS VL: EIVLTQSPGTLSLSPGERATLSCRASQSVSPLYLAWYQQKPGQAPRLLIYDASSRAPGIPDRFSGSGSGTDFTLTISRLEPEDFAVYYCQQYSAFPLTFGQGTKVEIK | 0.459 | 0.00276 | 6.02e+06 | 1.74 | 0.00625 | 3.6e+06
C01_Rd4_6nM_C04 (antibody, V domains shown, IgG) VH: EVQLLESGGGLVQPGGSLRLSCAASGFTFSSYPMSWVRQAPGKGLEWVSAIGGSGGSLPYADSVKGRFTISRDNSKNTLYLQMNSLRAEDTAVYYCARYWPMDSWGQGTLVTVSS VL: EIVLTQSPGTLSLSPGERATLSCCSSQSVSSTYLAWYQQKPGQAPRLLIYDASSRAPGIPDRFSGSGSGTDFTLTISRLEPEDFAVYYCQQYSAFPLTFGQGTKVEIK | 2.13 | 0.0497 | 2.33e+07 | 5.16 | 0.0327 | 6.34e+06
C01_Rd4_0.6nM_C27 (antibody, V domains shown, IgG) VH: EVQLLESGGGLVQPGGSLRLSCAASGFTFSSYPMSWVRQAPGKGLEWVSAIGGSGGSLPYADSVKGRFTISRDNSKNTLYLQMNSLRAEDTAVYYCARYWPMDSWGQGTLVTVSS VL: EIVLTQSPGTLSLSPGERATLSCRASQSVSSTYLAWYQQKPGQAPRLLIYDASSRAPGIPDRFSGSGSGTDFTLTISRLEPEDFAVYYCQQYSRWPLTFGQGTKVEIK | 0.303 | 0.00374 | 1.23e+07 | 0.852 | 0.00285 | 3.34e+06
A02_Rd4_6nM_C25 (antibody, V domains shown, IgG) VH: EVQLLESGGGLVQPGGSLRLSCAASGFTFSSYAMNWVRQAPGKGLEWVSAISDSGGSRWYADSVKGRFTISRDNSKNTLYLQMNSLRAEDTAVYYCARYWPMTPWGQGTLVTVSS VL: EIVLTQSPGTLSLSPGERATLSCRASQSVSSSYLAWYQQKPGQAPRLLMYDASIRATGIPDRFSGSGSGTDFTLTISRLEPEDFAVYYCQQYLDWPLTFGQGTKVEIK | 0.065 | 0.00018 | 2.75e+06 | 0.22 | 0.00033 | 1.5e+06
C01_Rd4_6nM_C10 (antibody, V domains shown, IgG) VH: EVQLLESGGGLVQPGGSLRLSCAASGFTFSSYPMSWVRQAPGKGLEWVSAIGGSGGSLPYADSVKGRFTISRDNSKNTLYLQMNSLRAEDTAVYYCARYWPMDSWGQGTLVTVSS VL: EIVLTQSPGTLSLSPGERATLSCRASQSVSSVYLAWYQQKPGQAPRLLIYDASSRAPGIPDRFSGSGSGTDFTLTISRLEPEDFAVYYCQQYSTWPLTFGQGTKVEIK | 0.162 | 0.00212 | 1.31e+07 | 0.493 | 0.00219 | 4.44e+06
